Source: a protein production outcome set (Wang et al. 2014)

Assay: label from the status in PepcDB records

**Q.** Which protein production does the source give for “METNKYLELIKQELANMPDFVKEYNLGTSHSLTTTYQYLTEIRRFFDWLRQNNIASVSSNKEIEVTTLENLQRNDVMLYIHHLKHTKNQQGRLNSPTTINRSINALRSLYKFLTITSDNNHGEPYFDRNVMLKINSLNDTKTLNYRAHVLESHMYMGDLKYQFLDFIENEYIHKCNKQSLPAFKKNHERDMAIIALILGTGIRVSECVGVNMRNINLKDAMLDVTRKGGQKDSVPIAEWTIPYLKKYREIRADHYHAEKEDIAFFLTRWHGKTKRITTNAVEKMVNKYSAAFGKPLTPHKLRHTLASELYEVTKDQVLVAQQLGQKGTTATDLYTHVDQKKQKAALNKINRYKSSD” here?
**A.** Its protein production is “failed”.

**Q.** With “METPAVSLLVAVYNTETYIRTCLESLRNQTMDNIEIIIVNDGSADASPDIAEEYAKMDNRFKVIHQENQGLGAVRNKGIEAARGEFIAFIDSDDWIEPDYCEQMLRTAGDETDLVICNYAAEFEDTGKTMDSDIAQTYQDQPKEHYIKALFEGKVRGFSWNKLYRRSMIEAHRLSFPLRGELEHVEDQFFSFRAHFFARSVSYVKTPLYHYRIHLSSIVQRYQKKLFESGLALYETNAAFLQENNKLEEYRKELDTFIVLHSSICMLNEWKTSGSRRLFEKLRNVGVICADPVFQESLSKTGTAPFDAKRSCLLLMAKYRMIPFVAMASAVYQRVIEYKMRNRG” as the sequence, how does the protein production read?
**A.** The protein production was “failed”.

**Q.** With “METPNPLTLSELPHDLLRNIFNRLSFADFHRATWNSISKQTAPPKTKSPWLILFPDEGVHGCVLYNPDEDRIYKSVRDFSGTIFLANSGNWFLVMDSKSNLYIIDVFSENRIDLPPLESLLSDNFTFEQKGDKELKWQASNDQILVFRLPRAEELRGILWVDEKMKEFVAVWFLEDSCNFLAFYKKADDHYSHIQLEYVITDVFQSVSDIVLHGCFLYIGVGDYIQIIDLSKDQGFKDVTRNYLFNVHNGPWGFRSIFNLVVTTSGEVLMVLNNLYEKNIESEKSFRIFKKDPNPDPNKHDNLLVEVDSLGNEEVMLLDLGITMHGIEPNSIYFTRHDRVVHRLYIS” as the sequence, how does the protein production read?
**A.** The protein production was “not failed”.

**Q.** For “METPYTDHLSPEDFEHVYEPAEDSFLLLDALEKDLEYLDRLQPSLCVELGSGSGVIITALAKKLAGFSLCLATDINPKACNATRRTATRNGARLDSIRCSLADALRPRSVDVLLFNPPYVVTSDEELQTQQFDSHSESSTDRNLVFSWAGGQDGRRVTDILLKQLDDILSPRGVLYLLLLRENKPEEIIKYLEGLQFRAVKFMERRIPGEHLCILKVTRYLASS”, which protein production is on record?
**A.** The protein production was “failed”.

**Q.** Which protein production does the source give for “METRFVTPFHHLLVNNLVANITNFTIWFALTFYVYLETKSVFATGMIAGVYLVLTAACGIWFGSLVDHHRKKLAMAGSSLASLLLYALALAVLLLAPKGAIADVGRPWLWALIGLSMLGVIAGNIRTIALPTLVTLLIPEDRRDKANGLVGMVSGVGFLTTSVISGFLVAWGGMLAALTFALGFTVAALVHLLTVPVDEPRVEAEHGAPVAPRRIDLAGTIKVVAAVPGLFALILFATFNNFLGGIFMALLDAYGLSMVSVQAWGLLFGFLSVAFIISGLAISKTGLGKNPLRTLLLVNLISWAVCCVFPLKSSIVMLAMGCFVWMLLGPYAEAAEQTTLQKVVPFERQGRVFGFAQSVEQAASPLTAFLIGPLTQFIVIPFMTHGAGAAAIGDWFGRGPDRGMALVFTLAGVVGLIVTLLAFGSKAYRQLSAAYAQGEPAPAA” here?
**A.** The protein production was “failed”.

**Q.** With “METTDHSTPQCGSASAGGQKTVGKDDYLLIEAVNKGDADRVQQLLEQGADANVCEESGGWTPLHNAVQSGRVDIVNLLLRYGADPHRRKKNGATPFIVAGICGDVSLLQIFLSRGANINERDMYGFTAFMEAAEYGNVEALKFLFAEGADVNLRRETTEDRRRLKQGGATALMSAAENGHPEVVRILLDEMKAEADARDNMGRNALIRSLLNRDCENVEIHVEEITSVLIQYGADINVRGEGEKTPLISAVKRKHTGLVQMLLSQEGIKVNDRDSEGKTALQIAVELKLKEIVRLLLEKGADTKCGDLVWIAKRNYDHGLVKLLLSYEANHDTNPPAKDWLPHSARWGEALERLHSVSRPMTGKLKIFMNDDYKIASTSEGGIYLGIYDNREVAVKVFCENSSRGRKEVSCLRDCGDHSNLLTFYGSEEHKGSLYVCVSLCESTLEKFLNVPREEPMEKGEDKFALSVLLSIFKGVQKLHMHGYSHQNLQPPNILIDSEKAVRLADFDESIQWMRESQTVQRDLEDLGRLVLYVVNKGEIPFETLKGQNDEELLTIAPNEETKDLVHCLFSPGENVKNCLMDLLGHPFFWTWENRYRTLRDVGNESDIKVRNNKSKLLKLLQPQTHAPSRSFDRWTSKIDKRVMSDMNGFYKSRKGYRDTVGDLLKFIRNIGEHINEEKNRQMKEILGDPSRYFQETFPDLVIYIYKKLKETEFRKHFPQPPPSLSVPEAAGPGGVQS” as the sequence, how does the protein production read?
**A.** The protein production was “failed”.

**Q.** For “METVFALCAIMLLAFNLLGIVLAGWRLTRRDAENDLVRQKPPVSLVVPLRGVENFTPLTLSRAFGLDWPDYELLFCVADEFDPVIAEVRKAAAAFPSVSMQLLIGDDRVSANPKLNNCVKGWRAAKYEWVILADSNVLMPKSYIATMMSAWRPDSGLVCSPPLGSRPVGFWANVECAFLNGSQGRWQYAAEAIGIGFAQGKSMLWNKPFLEDRGGIRALAAEIAEDAASTKLVRSAGRKVHLVSAPFEQPLGQRHAGEIWSRQTRWARLRRVTFPQYFAPEILTGALPPLLFALAATAMMDVNLAATASVVLALMFGPELALAALNGWPVSLYTLPAMIARDLIMPVVWARSWIGSAVAWRGNVMTIGTAESTLAGPPAE”, which protein production is on record?
**A.** Its protein production is “failed”.

**Q.** With “MEVCSTVTTKKLSSLAKLILFTIQKVSDASRHKLLTTLDPHLLAKRGKILRKSLNEAVSTSHSRITCRPSDHQDVRSSFISPVPLQLEYEFSCSSTPPRRSYATTVSKGRRSNGSHNRPLINKRQRQAYIRYNTLPKVRDSIWDRHVAAAVFPDVASSTGTMESCHVDRAAEEFIQSFYRQLRLQKWMMAQEV” as the sequence, how does the protein production read?
**A.** Its protein production is “failed”.

**Q.** Which protein production does the source give for “MEVDKKDEREAESSEQVVNPWEVSAKDGGKIDYDKLIDKFGCQRLDESLIDRVQRLTSRQPHVFLRRSVFFAHRDFNEILDAYERGDKFYLYTGRGPSSEALHLGHLIPFMFTKYLQEAFKVPLVIQLTDDEKSIWKNLSVEESQRLARENAKDIIACGFDVTKTFIFSDFDYVGGAFYKNMVKVGKCVTLNKAMGIFGFSGEDPIAKLSFPPVQAVPSFPSSFPHLFPGKDNLRCLIPCAIDQDPYFRMTRDVAPRLGYSKPALIESTFFPALQGENGKMSASDPNSAIYVTDSAKDIKNKINRYAFSGGQDSIEKHRELGANLEVDIPVKYLSFFLEDDSELEHIKKEYGEGRMLTGEVKKRLTEVLTEIVERHRRARAAVTDEMVDAFMAVRPLPSMFE” here?
**A.** The protein production was “not failed”.

**Q.** For “MEVISSFYLFLEILGTVAFAISGTVVGINHKLDIFGILVMSVITAVGGGIFRDLLLGATPPTALKSPFFIVISIIASIVAMLVALIIKSRREALSIFKAARFYNNLLLVSDAIGLGIFTVLGIDAGIAHGYSQNIFFIVFLGVLTGVGGGMIRDVIANQVPMIFRENIYALPCIIGGILYVYLQSVISHNLALFISVIFIVLIRIISEQRKLNLPRIEY”, which protein production is on record?
**A.** Its protein production is “failed”.

**Q.** For “MEVKMNEIMEALEQSELIIIHRHLRPDPDAYGSQLGLKYYLQKKFPNKQIYAVGANEDSLKFIGLMDEIDDDMYKKATVVVCDTANAPRIDDQRYDTGTKLLKIDHHPATDQYGDINYVNTKASSTSEIIYEFILHFNDEHIIDEQVARVLYLGIVGDTGRFLFNNTTPRTMQIAGKLLTYPFDHNQELNKMSEKDPKLLPFQGYILQNFDLNDKGFCKVKITKDILEKFQIQPNEASLFVNTIADIRGLKIWMFGVDEGDQIRCRLRSKGHIIINDVANTFGGGGHPNASGVSVNSWEQFEQLAEALNDKL”, which protein production is on record?
**A.** Its protein production is “failed”.

**Q.** For “MEVSEGIEIIRGDPRRALIKLSGPLIVAMLLTSIYNLVDAVWVAGLGGEALAAIGFVTPIYMILVGLSNGLGAGAASSVSRCLGAGDEEGMNNSASHTIIITLAVSIILTVIIEILLRDILLSLGAAGALKPAMEYGSVVFAGTLFTLFPGAAYGILRSEGDARRPMYAMGLSAVLNMVLDPILIYTAGWGIAGAAWATVISQLLVSLLIIYWFLAGRTFTSIGWSHFRADRGVVWSILSVTIPASAEFLVMSMVTALLNWILTSVAGTSAVAVYSAGWRIVMLAIVPVISVATALVSVSGVAYGSRNFENLEVAHGYSIRLGLLIAGATAALTFVLAPWIAWIFSYSQASSHLAPRITGFLRVICLFYIFLPPGIMSGSIFQGAGRGMTSLMLSVIRQVLLVAVFAYLLAVTLGLGEVGVWWGVVAGDIGGSLVAYLWARLFIGRLRRYAA”, which protein production is on record?
**A.** The protein production was “failed”.

**Q.** Which protein production does the source give for “MEVYSMNFALGVILAFSAAFTWALTSVLSKVSMRRVSPLTLNFLRLVIASGFYLPLIIYLNLIPSKGIMWWVIVVFSGIIGFMIGDWLFLEGMKLLGVSRANMLTTLHPIITMVLAHYLLGRPLNAYLFLGAGLIILAVLLLLSEKSESGGINARGVLLVVVAELLWTIAILITDWLVSNEPPVLIAALRISSGILGGLPFLPKMWREIRKLRLGDMGLVFVISLLGTIVGQYLFIKSISLVSSTVATPVTESTPIMASLLAVVFLREKITSKLVASMMLSFIGILIIGVLG” here?
**A.** The protein production was “failed”.

**Q.** Which protein production does the source give for “MEWEVKEDGYSEEVSSLFLDHLPSKILEAKNRAEQLLTLQEKPILDIAEYNHAKVLAAFQEERVSTYHLQGTTGYGLGDSGRETLDRVMARILGTEAALVRGQFVSGTHAIATALFGVLRPGDHFISVTGDPYDTLEEVIGIRGTGQGSLKDFGVSYDSVPLSEEGTIQHSLVSQGIKPNTKMLILQRSRGYAWRNSLPMEQIAAFVAYVREHFPHLIIFVDNCYGELVEKCEPGDVGADLMAGSLIKNLGGSLAPTGGYIAGRQELVEKAACRLTAPGIGGEVGATLSWQLQFFQGLFFSPLTVSEAIRGAIFSAAFWQALGFEVNPLPDALRTDLIQAVKLNSREAMIAFCQGFQKGSPVDSHVLPIPSGMPGYEDEVIMAGGTFIQGATSEFSADGPMRDPFIAYQQGGVSMNYIKFGNLLAAQKLWEQGLLK” here?
**A.** Its protein production is “failed”.

**Q.** With “MEYDEKLARFRQAHLNPFNKQSGPRQHEQGPGEEVPDVTPEEALPELPPGEPEFRCPERVMDLGLSEDHFSRPVGLFLASDVQQLRQAIEECKQVILELPEQSEKQKDAVVRLIHLRLKLQELKDPNEDEPNIRVLLEHRFYKEKSKSVKQTCDKCNTIIWGLIQTWYTCTGGPRPRRGVRNERDQSSCLRWAHIQM” as the sequence, how does the protein production read?
**A.** Its protein production is “failed”.

**Q.** With “MEYGHHARPDSKRPLDEGSPAAAGLTSKKANEALTRNRELTTVLVKNLPKSYNQNKVYKYFKHCGPIIHVDVADSLKKNFRFARIEFARYDGALAAITKTHKVVGQNEIIVSHLTECTLWMTNFPPSYTQRNIRDLLQDINVVALSIRLPSLRFNTSRRFAYIDVTSKEDARYCVEKLNGLKIEGYTLVTKVSNPLEKSKRTDSATLEGREIMIRNLSTELLDENLLRESFEGFGSIEK” as the sequence, how does the protein production read?
**A.** Its protein production is “not failed”.

**Q.** For “MEYIKPHKGFSTLIILGITLGIDLIFSLLSTFINTYIVLRILEIFIVFFNIYQLYYILKSLTLKYCYDNENFYVLWCFGIRRVTIPFKEIEAYNVSHGEIKGVKLWGYGRNFFALGTFSVNDIGIVNMFVTATKNVIYIKCNSSIYGISPEKCDEVKNFLEKRKLVLKNWTYEKRNKVSLSKDRHFDILIFLISIVILMVTIIPFILYLRGVMPHKMPLSFDSNFKPMIYGTSREFAFKHMMYGAYNMIIFFCIYYSAYFYARYSKKLAYRLMYISFLVAFIFLIFQFKIYVTYIH”, which protein production is on record?
**A.** Its protein production is “failed”.
